Publication PMC11852929 (Journal of Virology, 2025)

Target: T1, SARS-CoV-2 Omicron BA.5 S ectodomain trimer (BA.5-Spike-6P) (SARS-CoV-2 Omicron BA.5, S375F | D405N | R408S | K417N | Q498R | N501Y | Y505H)
T1 construct: also called BA.5 spike (S) trimer; BA.5 S trimer
Assay: cryo-EM structure
Details: both partners purified

B1: ORB10 fragment antigen-binding region (Fab) (Fab, V domains shown)
VH: QVQLQQSGAELVRPGSSVKISCKASGYAFSNYWMNWVKQRPGEGLEWIGQIYPGDGDTDYNGKFKGRATLTADKSSSTAYMQLSSLTSEDSAVYFCARGDDGYYVYFDYWGQGTTLTVSS
VL: EIVLTQSPALMAASPGEKVTITCSVSSSIGSNNLHWYQQKSETSPKPWIYGTSNLASGVPVRFSGSGSGTSYSLTISTMEAEDAATYYCQQWSGYPLTFGGGTKLEIK
notes: also called ORB10 Fab
For B1, the “stoichiometry N” value was 2 Fabs per S trimer.
